These are literature values, as cited in PMC10716173.

By Kd is commonly meant the concentration at which binding is half-saturated.

The target in this data set is stapled BID BH3 peptide BH3 (Homo sapiens) (UniProt P55957).
Sequence of stapled BID BH3 peptide BH3 (Homo sapiens) (P55957 80-101): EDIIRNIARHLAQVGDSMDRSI

Sequence of BAK (Q16611 2-211): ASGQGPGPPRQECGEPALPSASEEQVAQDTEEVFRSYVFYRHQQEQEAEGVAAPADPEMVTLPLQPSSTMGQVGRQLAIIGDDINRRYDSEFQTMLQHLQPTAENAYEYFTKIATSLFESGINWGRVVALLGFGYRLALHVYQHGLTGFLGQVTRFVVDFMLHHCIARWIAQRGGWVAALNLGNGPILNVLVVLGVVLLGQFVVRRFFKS

Take BAK (from UniProt Q16611): the equilibrium dissociation constant (Kd) is 1000 nM.
